Test results as given in article PMC9213077.

Biological target: Fcγ receptors on THP-1 cells (human (endogenous in THP-1)) (UniProt P12314)
Assay: retention of opsonized erythrocytes on adherent THP-1 cells

Sequence of UniProt P12314 (P12314 16-374): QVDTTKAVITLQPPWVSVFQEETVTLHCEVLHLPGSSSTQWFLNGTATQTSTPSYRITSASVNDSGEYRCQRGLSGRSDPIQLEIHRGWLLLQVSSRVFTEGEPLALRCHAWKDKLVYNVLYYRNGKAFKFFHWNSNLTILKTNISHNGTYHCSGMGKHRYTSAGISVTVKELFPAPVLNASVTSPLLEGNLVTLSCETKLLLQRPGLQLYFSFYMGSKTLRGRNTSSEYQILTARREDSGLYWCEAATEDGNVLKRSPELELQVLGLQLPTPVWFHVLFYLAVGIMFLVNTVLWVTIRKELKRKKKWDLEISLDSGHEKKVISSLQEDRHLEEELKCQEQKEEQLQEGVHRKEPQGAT

concentration at which erythrocyte retention occurred [µg/mL] | Substance
0.6 | rabbit antihuman erythrocyte antibody (Rockland; 209-4139), intact IgG
5 | single-cleaved rabbit antihuman erythrocyte IgG generated by imlifidase (antibody)
